According to PMC5797236, “The odd one out: Arabidopsis reticulon 20 does not bend ER membranes but has a role in lipid regulation” (Scientific Reports, 2018):

T1: GFP-RTN20 (Arabidopsis reticulon 20) (Arabidopsis thaliana, UniProt A9X4U2 1-561)
T1 construct: Reticulon 20 (RTN20), Arabidopsis thaliana, locus At2g43420; FRET donor; the methods name Gateway vectors for N- or C-terminal GFP without saying which was used for each gene; also called RTNLB20; source: tobacco (Nicotiana tabacum) leaf epidermal cells, Agrobacterium-mediated transient expression, in living cells; not shown: GFP, N-terminal, kept
T1 sequence (looked up): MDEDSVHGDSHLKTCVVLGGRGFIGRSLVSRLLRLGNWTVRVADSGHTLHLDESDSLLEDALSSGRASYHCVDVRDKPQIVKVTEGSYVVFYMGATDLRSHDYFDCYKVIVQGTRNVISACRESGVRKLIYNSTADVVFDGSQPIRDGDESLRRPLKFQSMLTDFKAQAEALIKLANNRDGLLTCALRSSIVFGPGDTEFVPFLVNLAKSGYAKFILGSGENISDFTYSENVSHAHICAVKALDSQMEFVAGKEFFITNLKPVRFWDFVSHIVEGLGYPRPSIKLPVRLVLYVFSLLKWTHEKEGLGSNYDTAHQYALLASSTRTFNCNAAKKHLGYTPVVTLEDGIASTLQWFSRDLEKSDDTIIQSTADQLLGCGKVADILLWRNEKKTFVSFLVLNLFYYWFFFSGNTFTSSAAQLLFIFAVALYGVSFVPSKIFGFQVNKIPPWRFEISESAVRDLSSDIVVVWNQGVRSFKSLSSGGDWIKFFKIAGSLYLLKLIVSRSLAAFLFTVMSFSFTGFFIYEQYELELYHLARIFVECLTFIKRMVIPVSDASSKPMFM

B1: mRFP-RTN1 (Arabidopsis reticulon 1) (natural protein, Arabidopsis thaliana, UniProt Q9SUR3 1-275, looked up)
chain: MAEEHKHDESVIAPEPAVEVVERESLMDKISEKIHHGGDSSSSSSSSDDEDEKKKTKKPSSPSSSMKSKVYRLFGREQPVHKVLGGGKPADIFMWKNKKMSGGVLGGATAAWVVFELMEYHLLTLLCHVMIVVLAVLFLWSNATMFINKSPPKIPEVHIPEEPILQLASGLRIEINRGFSSLREIASGRDLKKFLIAIAGLWVLSILGGCFNFLTLAYIALVLLFTVPLAYDKYEDKVDPLGEKAMIELKKQYAVLDEKVLSKIPLGPLKNKKKD
notes: Reticulon 1 (RTN1), Arabidopsis thaliana, locus AT4G23630; FRET acceptor; also called RTNLB1; source: tobacco (Nicotiana tabacum) leaf epidermal cells, Agrobacterium-mediated transient expression, in living cells; not shown: mRFP, N-terminal, kept
B2: RTN2 fused to mRFP (Arabidopsis reticulon 2) (natural protein, Arabidopsis thaliana, UniProt Q9SUT9 1-271, looked up)
chain: MADEHKHEESSPNLDPAVEVVERESLMEKLSEKIHHKGDSSSSSSSDDENEKKSSSSSPKSLKSKVYRLFGRERPVHKVLGGGKPADIFMWKDKKMSGGVFGGATVAWVLFELMEYHLLTLLCHVMIVALAVLFLWSNATMFIHKSPPKIPEVHIPEEPLLQLASGLRIEINRGISSLREIASGRDIKKFLSAIAGLWVLSILGGCYSFLTLAYIALVLLFTVPLFYDKYEDKVDSYGEKAMAELKKQYAVLDAKVFSKIPRGPLKDKKKD
notes: Reticulon 2 (RTN2), Arabidopsis thaliana, locus AT4G11220; FRET acceptor; also called RTNLB2; source: tobacco (Nicotiana tabacum) leaf epidermal cells, Agrobacterium-mediated transient expression, in living cells
B3: RTN3 fused to mRFP (Arabidopsis reticulon 3) (natural protein, Arabidopsis thaliana, UniProt Q9SH59 1-255, looked up)
chain: MAEEHKHEESIMEKISEKIHGHDDSSSSSSDSDDDKNSASLKTKIYRLFGREQPLHKLFGGGKPADIFLWRNKKVSGGVLGAATVSWILFELLEYNLLTLFGHISILALAVLFLWSSASTFIHKSPLHIPEVHIPEDVVLQLASGLRIEINRGFTVLRDIASGRDLKKFLLVIAGLWVLSKVGSSCNFLTLIYIATVLLFTIPVLYEKYEDKVDDFGEKAMREIKKQYVEFDVKVLSKVMSKIPKGAFAFIKKKD
notes: Reticulon 3 (RTN3), Arabidopsis thaliana, locus AT1G64090; FRET acceptor; also called RTNLB3; source: tobacco (Nicotiana tabacum) leaf epidermal cells, Agrobacterium-mediated transient expression, in living cells
B4: RTN19 fused to mRFP (Arabidopsis reticulon 19, 3BETAHSD/D2) (natural protein, Arabidopsis thaliana, UniProt Q67ZE1 1-564, looked up)
chain: MSPAATETERWCVVTGGRGFAARHLVEMLVRYEMFCVRIADLAPAIMLDPQEGNGVLDEGLRSGRVQYISADLRDKSQVVKAFQGAEVVFHMAAPDSSINNHQLQYSVNVQGTQNVIDACVDVGVKRLIYTSSPSVVFDGVHGILNGTESMAYPIKHNDSYSATKAEGEELIMKANGRNGLLTCCIRPSSIFGPGDRLLVPSLVAAARAGKSKFIIGDGNNLYDFTYVENVAHAHVCAERALASGGDVSTKAAGQAYFITNMEPIKFWEFMSQLLDGLGYERPSIKIPAFIMMPIAHLVELTYKVLGPYGMTVPQLTPSRVRLLSCSRTFDSTKAKDRLGYAPVVPLQEGIRRTIDSFSHLTAGSQSKREGPSKASRILGGGKVADTLLWKDLKQTLIAIFILISIYYNFVATGSTVVTALSKALLVASVFLFLHGILPEKIFGYTVEKIPASQFHLSKDSSHDLSLSVISSWNTTVKALRSLCQGNDWSFFFKVVFVLLALSLAGAISLHSIFVIGLPIAFLAFLVYEKKEQEIDSIVVSFKSFACKHKSDVYEKLFGSKKHD
notes: Reticulon 19 (RTN19, 3beta-hydroxysteroid dehydrogenase/C-4 decarboxylase isoform 2), Arabidopsis thaliana, locus At2g26260; FRET acceptor; also called RTNLB19; source: tobacco (Nicotiana tabacum) leaf epidermal cells, Agrobacterium-mediated transient expression, in living cells

target: T1, GFP-RTN20 (Arabidopsis reticulon 20); experiment: FRET or BRET; FRET-FLIM in living tobacco leaf epidermal cells; GFP-RTN20 as donor, mRFP fusions as acceptors, transiently co-expressed; two-photon excitation at 920 nm; lifetimes measured at the ER associated with the nuclear envelope; donor alone 2.4 ± 0.03 ns; conditions: partners not purified

| Binder | GFP donor fluorescence lifetime (FRET-FLIM) [ns] |
| --- | --- |
| B1 | 2.21 ± 0.02 |
| B2 | 2.2 |
| B3 | 2.2 |
| B4 | 2.2 |
